Changes are numbered by the printed parent chain.
B1: A5M0 (antibody, human IgG1, kappa, V domains shown)
VH: QVQLVQSGAEVKKPGSSVKVSCKASGYTFTSYGITWVRQAPGQGLEWMGENYPRSGNTYYNEKFKGRVTITADKSTSTAYMELSSLRSEDTAVYYCARAEFISTVVAPYYYALDYWGQGTLVTVSS
VL: DIVMTQSPDSLAVSLGERATINCKASKKVTIFGSISALHWYQQKPGQPPKLIYNGAKLESGVPDRFSGSGSGTDFTLTISSLQAEDVAVYYCLQNKEVPYTFGGGTKVEIKR
notes: Full length chains
B2: A3N2 (antibody, human IgG1, kappa, V domains shown)
VH: B1 VH with A99S
VL: DIVMTQTPLSLSVTPGQPASISCKASKKVTIFGSISALHWYLQKPGQPPQLIYNGAKLESGVSDRFSDSGSGTDFTLKISRVEAEDVGVYYCLQNKEVPYTFGGGTKVEIKR
notes: Full length chains
B3: A3N1 (antibody, human IgG1, kappa, V domains shown)
VH: B1 VH with A99S
VL: DIVMTQTPLSLSVTPGQPASISCKASKKVTIFGSISALHWYLQKPGQPPQLIYNGAKLESGVSDRFSDSGSQNRSPFGNQLSFTLKISRVEAEDVGVYYCLQNKEVPYTFGGGTKVEIKR
notes: Full length chains
B4: A7M3 (antibody, human IgG1, kappa, V domains shown)
VH: B1 VH with N51D, A99S
VL: B1 VL with I35T
notes: Full length chains
B5: A8M3 (antibody, V domains shown)
VH: B1 VH with N51D
VL: DIVMTQSPDSLAVSLGERATINCKASKKVTIFGSTSALHWYQQKPGQPPKLIYNGAKLESGVPDRFSGSGSGTDFTLTISSLQAEDVAVYYCLQNKEVPYTFGGGTKVEIK
B6: A9M3 (antibody, V domains shown)
VH: B1 VH with N51D, A99V
VL: B5 VL
B7: A6M0 (antibody, human IgG1, kappa, V domains shown)
VH: B1 VH with A99V
VL: B1 VL
notes: Full length chains

These binders were tested against T1, recombinant human IL-23 (human, UniProt Q9NPF7 20-189; P29460 23-328) (assay: IL-23/IL-23R inhibition ELISA (optimised protocol, OD450): plate coated with human IL23R Fc chimera, antibody pre-incubated with constant human IL-23, bound IL-23 detected with biotinylated anti-human IL-12; purified antibody).
T1 construct: also called hIL-23
T1 sequence 1: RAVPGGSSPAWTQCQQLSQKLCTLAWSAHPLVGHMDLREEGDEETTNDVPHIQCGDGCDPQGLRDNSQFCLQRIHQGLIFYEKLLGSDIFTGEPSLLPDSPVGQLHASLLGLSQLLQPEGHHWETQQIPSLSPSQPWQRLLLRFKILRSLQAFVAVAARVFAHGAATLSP
T1 sequence 2: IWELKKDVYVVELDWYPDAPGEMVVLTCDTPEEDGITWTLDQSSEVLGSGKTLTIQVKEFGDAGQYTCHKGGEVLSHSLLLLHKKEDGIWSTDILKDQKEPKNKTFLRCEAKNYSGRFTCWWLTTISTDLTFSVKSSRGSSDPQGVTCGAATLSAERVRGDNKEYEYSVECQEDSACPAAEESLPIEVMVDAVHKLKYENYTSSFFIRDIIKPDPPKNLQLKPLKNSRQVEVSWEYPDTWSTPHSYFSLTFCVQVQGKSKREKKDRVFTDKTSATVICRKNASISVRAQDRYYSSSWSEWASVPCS
Method: (§1) Optimised protocol: Plates were coated with human IL23R Fc chimera at […] (phosphate buffered saline). 50 μl/well of this mixture was incubated overnight at 4° C. The plates were then washed three times with Phosphate Buffered Saline with 0.05% Tween 20 (PBST). Plates were blocked with 4% skim milk powder (Fluka BioChemika #70166) PBST 100 μl/well for a minimum of 1 hour at room temperature. The plates were then washed three times with Phosphate Buffered Saline+0.05% Tween 20 (PBST). Various concentrations of antibody were incubated in a separate plate with a constant concentration of IL-23 for 1 hour at room temperature. 50 ul of each mixture were transferred to the assay plate and incubated at RT for 1 hr. They were then washed three times with Phosphate Buffered Saline+0.05% Tween 20 (PBST). Bound IL23 was detected by anti human 1L12 Biotin labelled Ab (R&D systems BAF219) diluted to 100 ng/ml in 4% skim milk powder (Fluka BioChemika #70166) PBST. 50 μl/well of the biotinylated antibody was added and incubated at RT for 1 hour. The plates were then washed three times with Phosphate Buffered Saline+0.05% Tween 20 (PBST). SA HRP (GE healthcare RPN4401) was diluted 1/4000 in 4% skim m ilk powder (Fluka BioChemika #70166) PBS, 50 μl/well was added to the plates. The plates were then washed three times with Phosphate Buffered Saline+0.05% Tween 20 (PBST). 50 ul/well of TMB was added to the plates and incubated at RT for 15 min. 25 μl/well of 3 MH₂SO₄ was added to the wells already containing TMB. The plate was read at OD450 nm using the SOftmaxPRO versamax plate reader.
In the case of B1, the “IC50 (read off the curve)” value is reported as roughly 0.2 nM.
With B2 the “IC50 (read off the curve)” value was roughly 0.8 nM.
In the case of B3, the “IC50 (read off the curve)” value is reported as roughly 1 nM.
For B4, the “IC50 (read off the curve)” value was roughly 0.2 nM.
B5 was tested, and the “IC50 (read off the curve)” value was roughly 0.2 nM.
In the case of B6, the “IC50 (read off the curve)” value is reported as roughly 0.1 nM.
B7 was tested, and the “IC50 (read off the curve)” value was roughly 0.2 nM.

Each binder was assayed against T1, recombinant human IL-23 (assay: SPR (Biacore 3000), CHO supernatant antibody captured on Protein A or anti-human IgG, IL-23 analyte at 256, 64, 16, 4 nM).
Work on B2 yielded a Kd of 1.5 nM, a koff of 0.00041 s⁻¹ and a kon of 280000 M⁻¹ s⁻¹.
B3 was tested, and the Kd was 2.3 nM, the koff was 0.00039 s⁻¹ and the kon was 170000 M⁻¹ s⁻¹.

The binders below were run against T1, recombinant human IL-23 (assay: SPR (Biacore T100), purified antibody captured on anti-human IgG, IL-23 analyte, 1:1 model).
Method: Biacore analysis was carried out using a capture surface on a CM5 chip. Anti-human IgG (BR-1008-39) was used as the capturing agent. Anti-human IgG was coupled to a CM5 biosensor chip by primary amine coupling. Humanized antibody was captured on this immobilised surface and defined concentrations of IL-23 were passed over this captured surface. An injection of buffer over the captured antibody surface was used for double-referencing. […] T100 Biacore machine was used to generate the data; all runs were carried out at 25° C. using HBS EP. Data was analysed using the software inherent to the machine and fitted to the 1:1 model of binding. Tables 7 and 8 detail the IL-23 binding analysis carried out on the 8C92H6.HC1LC1 chimera and selected humanized variants in two separate experiments. Data presented in Tables 7 and 8 are from purified antibody samples. The data shown for the humanized variants is representative of a number of runs. The chimeric mAb (8C9H6.HC1LC1) was only run once in each experiment, so data shown for this mAb is from that one run.
B1 gave a Kd of 0.103 nM, a koff of 0.000171 s⁻¹ and a kon of 1.65e+06 M⁻¹ s⁻¹.
With B4 the Kd was 0.144 nM, the koff was 0.000145 s⁻¹ and the kon was 1.01e+06 M⁻¹ s⁻¹.
B5 showed a Kd of 0.08 nM, a koff of 0.000135 s⁻¹ and a kon of 1.67e+06 M⁻¹ s⁻¹.
For B6, the Kd was 0.065 nM, the koff was 0.000171 s⁻¹ and the kon was 2.64e+06 M⁻¹ s⁻¹.
B7 was tested, and the Kd was 0.101 nM, the koff was 0.000298 s⁻¹ and the kon was 2.95e+06 M⁻¹ s⁻¹.

Each binder was assayed against T1, recombinant human IL-23 (assay: sandwich ELISA (optimised protocol, OD450): plate coated with anti-human IL-12, antibody pre-incubated with constant human IL-23, bound antibody detected with anti-human IgG gamma chain HRP; purified antibody).
Method: Optimised assay conditions: Plates were coated with anti human IL12 at 2 μg/diluent (phosphate buffered saline). 50 μl/well of this mixture was incubated overnight at 4° C. The plates were then washed three times with Phosphate Buffered Saline with 0.05% Tween 20 (PBST). Plates were blocked with 4% skim milk powder (Fluka BioChemika #70166) PBS 200 μl/well for a minimum of 1 hour at room temperature. The plates were then washed three times with Phosphate Buffered Saline+0.05% Tween 20 (PBST). Various concentrations of antibody were incubated in a separate plate with a constant concentration of IL-23 for 1 hour at room temperature. 50 ul of each mixture were transferred to the assay plate and incubated at RT for 1 hr. They were then washed three times with Phosphate Buffered Saline+0.05% Tween 20 (PBST). […] 50 μl/well of the detection antibody was added and incubated at RT for 1 hour. The plates were then washed three times with Phosphate Buffered Saline+0.05% Tween 20 (PBST). 50 μl/well of TMB was added to the plates and incubated at RT for 10 min. 50 μl/well of 1 MH₂SO₄ was added. The plate was read at OD450 nm using the SOftmaxPRO versamax plate reader.
For B2, the “EC50 (read off the curve)” value was roughly 0.04 nM.
In the case of B3, the “EC50 (read off the curve)” value is reported as roughly 0.04 nM.

Each binder was assayed against T1, recombinant human IL-23 (assay: SPR (Biacore T100), CHO supernatant antibody captured on Protein A or anti-human IgG, IL-23 analyte at 256, 64, 16, 4, 1 nM).
With B2 the Kd was 1.6 nM, the koff was 0.00038 s⁻¹ and the kon was 240000 M⁻¹ s⁻¹.
Work on B3 yielded a Kd of 4.1 nM, a koff of 0.00035 s⁻¹ and a kon of 84000 M⁻¹ s⁻¹.

Target: T2, recombinant cynomologus IL-23 (cynomolgus, limits assumed)
T2 construct: also called cynomolgus IL-23; cyno IL23
T2 chain 1: T1 sequence 1 with T12A, H75R, L131P
T2 chain 2: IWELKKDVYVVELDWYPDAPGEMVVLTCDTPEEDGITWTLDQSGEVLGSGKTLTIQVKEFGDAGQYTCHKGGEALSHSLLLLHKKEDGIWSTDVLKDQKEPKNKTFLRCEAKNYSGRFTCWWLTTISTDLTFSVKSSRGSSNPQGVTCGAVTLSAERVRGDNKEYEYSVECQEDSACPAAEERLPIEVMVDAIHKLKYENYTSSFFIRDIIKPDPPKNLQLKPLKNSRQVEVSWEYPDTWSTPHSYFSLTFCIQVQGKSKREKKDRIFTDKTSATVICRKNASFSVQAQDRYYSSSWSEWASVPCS
Assay: IL-23/IL-23R inhibition ELISA (optimised protocol, OD450): plate coated with human IL23R Fc chimera, antibody pre-incubated with constant cynomolgus IL-23, bound IL-23 detected with biotinylated anti-human IL-12; purified antibody
Method: as §1
For B2, the “IC50 (read off the curve)” value was roughly 1 nM.
For B3, the “IC50 (read off the curve)” value was roughly 0.9 nM.
